Measured values taken from IntAct's records for PubMed 35512704.

B1: Mothers against decapentaplegic homolog 4 (Homo sapiens), Q13485 (parent)
chain: MDNMSITNTPTSNDACLSIVHSLMCHRQGGESETFAKRAIESLVKKLKEKKDELDSLITAITTNGAHPSKCVTIQRTLDGRLQVAGRKGFPHVIYARLWRWPDLHKNELKHVKYCQYAFDLKCDSVCVNPYHYERVVSPGIDLSGLTLQSNAPSSMMVKDEYVHDFEGQPSLSTEGHSIQTIQHPPSNRASTETYSTPALLAPSESNATSTANFPNIPVASTSQPASILGGSHSEGLLQIASGPQPGQQQNGFTGQPATYHHNSTTTWTGSRTAPYTPNLPHHQNGHLQHHPPMPPHPGHYWPVHNELAFQPPISNHPAPEYWCSIAYFEMDVQVGETFKVPSSCPIVTVDGYVDPSGGDRFCLGQLSNVHRTEAIERARLHIGKGVQLECKGEGDVWVRCLSDHAVFVQSYYLDREAGRAPGDAVHKIYPSAYIKVFDLRQCHRQMQQQAATAQAAAAAQAAAVAGNIPGPGSVGGIAPAISLSAAAGIGVDDLRRLCILRMSFVKGWGPDYPRQSIKETPCWIEIHLHRALQLLDEVLHTMPIADPQPLD
partner: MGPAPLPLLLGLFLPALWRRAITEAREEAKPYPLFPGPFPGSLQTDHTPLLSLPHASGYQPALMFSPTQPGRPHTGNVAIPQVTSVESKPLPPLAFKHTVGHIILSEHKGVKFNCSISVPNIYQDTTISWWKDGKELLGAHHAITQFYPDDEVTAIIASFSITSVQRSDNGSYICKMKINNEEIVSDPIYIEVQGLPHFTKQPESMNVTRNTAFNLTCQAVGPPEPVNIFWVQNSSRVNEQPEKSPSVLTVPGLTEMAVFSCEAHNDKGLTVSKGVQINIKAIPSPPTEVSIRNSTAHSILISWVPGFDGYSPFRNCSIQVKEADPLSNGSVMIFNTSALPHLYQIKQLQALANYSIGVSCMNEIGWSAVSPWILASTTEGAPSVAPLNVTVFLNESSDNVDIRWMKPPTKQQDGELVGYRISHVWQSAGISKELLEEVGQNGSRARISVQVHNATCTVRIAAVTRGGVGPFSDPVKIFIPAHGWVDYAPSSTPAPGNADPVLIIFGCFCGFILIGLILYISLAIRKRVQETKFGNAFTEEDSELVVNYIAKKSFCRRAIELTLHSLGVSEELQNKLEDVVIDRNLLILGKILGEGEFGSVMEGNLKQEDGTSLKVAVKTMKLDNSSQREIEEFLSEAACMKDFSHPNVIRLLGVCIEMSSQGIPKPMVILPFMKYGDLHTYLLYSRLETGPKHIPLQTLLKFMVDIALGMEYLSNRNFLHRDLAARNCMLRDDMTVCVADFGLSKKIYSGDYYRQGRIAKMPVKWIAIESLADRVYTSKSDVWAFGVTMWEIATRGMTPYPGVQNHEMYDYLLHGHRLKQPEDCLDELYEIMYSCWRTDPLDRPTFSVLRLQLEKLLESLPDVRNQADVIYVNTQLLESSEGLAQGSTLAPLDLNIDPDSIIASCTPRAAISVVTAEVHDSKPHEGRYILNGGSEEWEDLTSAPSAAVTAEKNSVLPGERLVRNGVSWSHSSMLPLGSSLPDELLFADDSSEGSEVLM
B2: Mothers against decapentaplegic homolog 4 (Homo sapiens), Q13485 (parent)
chain: B1 chain
partner: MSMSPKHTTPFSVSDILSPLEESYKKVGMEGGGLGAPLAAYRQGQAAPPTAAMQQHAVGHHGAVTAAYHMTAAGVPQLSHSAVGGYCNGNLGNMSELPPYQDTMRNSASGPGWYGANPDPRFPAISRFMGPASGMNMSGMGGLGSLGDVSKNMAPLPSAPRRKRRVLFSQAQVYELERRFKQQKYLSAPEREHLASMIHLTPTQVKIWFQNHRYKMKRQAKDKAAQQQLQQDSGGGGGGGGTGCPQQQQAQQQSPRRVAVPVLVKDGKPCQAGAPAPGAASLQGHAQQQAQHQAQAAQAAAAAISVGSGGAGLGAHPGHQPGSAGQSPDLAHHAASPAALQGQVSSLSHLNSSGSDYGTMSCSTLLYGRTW
B3: Mothers against decapentaplegic homolog 4 (Homo sapiens), Q13485 (parent)
chain: B1 chain
partner: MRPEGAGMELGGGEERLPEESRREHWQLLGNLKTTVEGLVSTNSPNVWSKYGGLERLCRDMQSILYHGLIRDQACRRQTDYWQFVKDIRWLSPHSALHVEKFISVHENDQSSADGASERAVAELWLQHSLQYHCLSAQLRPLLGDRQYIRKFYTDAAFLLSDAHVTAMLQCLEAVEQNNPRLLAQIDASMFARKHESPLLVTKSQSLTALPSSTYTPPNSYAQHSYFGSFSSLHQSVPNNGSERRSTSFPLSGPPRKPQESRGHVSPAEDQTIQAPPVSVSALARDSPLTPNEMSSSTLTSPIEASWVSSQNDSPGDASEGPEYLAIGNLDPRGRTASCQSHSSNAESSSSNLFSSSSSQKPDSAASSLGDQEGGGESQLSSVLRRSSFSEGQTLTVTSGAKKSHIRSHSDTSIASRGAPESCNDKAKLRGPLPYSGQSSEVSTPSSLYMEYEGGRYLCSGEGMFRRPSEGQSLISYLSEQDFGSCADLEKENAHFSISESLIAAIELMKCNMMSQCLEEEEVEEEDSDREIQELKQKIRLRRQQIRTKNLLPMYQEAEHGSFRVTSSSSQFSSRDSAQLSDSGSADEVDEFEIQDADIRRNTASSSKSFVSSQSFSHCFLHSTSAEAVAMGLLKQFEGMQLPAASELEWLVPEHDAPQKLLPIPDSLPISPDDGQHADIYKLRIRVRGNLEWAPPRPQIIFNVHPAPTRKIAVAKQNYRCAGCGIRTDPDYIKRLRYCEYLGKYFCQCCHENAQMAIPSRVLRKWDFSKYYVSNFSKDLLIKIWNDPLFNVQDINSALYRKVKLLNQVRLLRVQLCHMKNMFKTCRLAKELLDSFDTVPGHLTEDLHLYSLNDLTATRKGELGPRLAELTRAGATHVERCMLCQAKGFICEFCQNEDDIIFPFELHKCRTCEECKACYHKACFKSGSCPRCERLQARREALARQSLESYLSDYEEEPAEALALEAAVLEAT
B4: Mothers against decapentaplegic homolog 4 (Homo sapiens), Q13485 (parent)
chain: B1 chain
partner: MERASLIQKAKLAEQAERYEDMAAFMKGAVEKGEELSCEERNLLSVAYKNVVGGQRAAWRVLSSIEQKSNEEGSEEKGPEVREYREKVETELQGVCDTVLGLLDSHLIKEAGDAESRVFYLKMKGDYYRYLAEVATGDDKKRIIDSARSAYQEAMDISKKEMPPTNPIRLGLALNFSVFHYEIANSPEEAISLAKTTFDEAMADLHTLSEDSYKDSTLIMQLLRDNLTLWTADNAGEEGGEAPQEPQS

Variants of: B1
Details: with mertk_human MERTK

| Variant | effect of a mutation on the interaction |
| --- | --- |
| G386D | with no effect |

Variants of: B2
Details: with nkx21_human NKX2-1, P43699

| Variant | effect of a mutation on the interaction |
| --- | --- |
| D351H | with no effect |

Variants of: B2
Details: with nkx21_human NKX2-1, P43699
Remark: another data set of the same source

| Variant | effect of a mutation on the interaction |
| --- | --- |
| R361H | with no effect |

Variants of: B2
Details: with nkx21_human NKX2-1, P43699
Remark: another data set of the same source

| Variant | effect of a mutation on the interaction |
| --- | --- |
| R361C | with no effect |

Variants of: B2
Details: with nkx21_human NKX2-1, P43699
Remark: another data set of the same source

| Variant | effect of a mutation on the interaction |
| --- | --- |
| G386D | with no effect |

Variants of: B3
Details: with rubic_human RUBCN

| Variant | effect of a mutation on the interaction |
| --- | --- |
| R361H | with no effect |

Variants of: B3
Details: with rubic_human RUBCN
Remark: another data set of the same source

| Variant | effect of a mutation on the interaction |
| --- | --- |
| R361C | with no effect |

Variants of: B3
Details: with rubic_human RUBCN
Remark: another data set of the same source

| Variant | effect of a mutation on the interaction |
| --- | --- |
| G386D | with no effect |

Variants of: B3
Details: with rubic_human RUBCN
Remark: another data set of the same source

| Variant | effect of a mutation on the interaction |
| --- | --- |
| D351H | with no effect |

Variants of: B4
Details: with 1433s_human SFN

| Variant | effect of a mutation on the interaction |
| --- | --- |
| D351H | with no effect |

Variants of: B4
Details: with 1433s_human SFN
Remark: another data set of the same source

| Variant | effect of a mutation on the interaction |
| --- | --- |
| G386D | with no effect |

Variants of: B4
Details: with 1433s_human SFN
Remark: another data set of the same source

| Variant | effect of a mutation on the interaction |
| --- | --- |
| R361H | with no effect |
